Assay: label from the status in PepcDB records

Row | Sequence | protein production
1 | MGSSLPFDLILEILQRTPAESLLRFKSTCKKWYELISNDKRFMYKHLDKSTKRFLRIENRERVQILDPVTEILAVSTIPNELRHKYFTLIHCDGLMLGMCYEELGSDPNLAVWNPVMRKIKWIKPSPPLVCYWGSDYLGFGYDKTFRDNYKILRFTYLGDDDDDESYPKCQIYEFNSGSWRSIEAKFDGEIDVEVDGVSVNGSMYWIELQEKKNFILSFDFSKETFNRICDSPLYWDIKRLGCFNGDRLSLLQQNEATREIHVSVTNKLSDEVVSFSRYFSVTLPDIPLFRSIDILPLPGCFIGKNRNIIAWCEQLVGKYDDHTSIILYEIGEGGVTKRIRTGRHEADEDYNDLDNCSYVYVPSLIPVPE | failed
2 | NDPDADRFAVAVRKDDGEYQMLTGDQVGVLFGHYLLSHASADQRLVGTTIVSSSLLSKIANGFGVESYTTLTGFKWLMNVGIAQSQPDNQFLFAYEEALGYTVGNMVWDKDGLSALVAFAQLTAELAAKGQTIWDRLEQIYREQGFHLN | failed
3 | MTTPTPTPTPTSQSLAAPFAQGVEGVYFDGRSSRDRAATLRVLGSGDLSSGAPLAVLRVAPTDGEPGSEQQWPLRQVQFDPPLAGVRRVVKLPDGGRFETNDDRAITALEAAVGRNRGLRGVRRLESDWGLTLGAVVTLGLFVWGFLTYGLPAMARSAAAATPRSVLTSFDTSAIEVLDNGTFMGPTHLSAARQAQLQREFKDVAQWAGGGYPYRLLLRDGTPQANGDKDSPAPSGSIGTNAFALPGGTVVMTEQLVKLAHSDRELMGVLAHETGHVTHRHSLSSIYQGLGLTLLTTAVTGDLIGASTFAAAVPTWLLKNGYSRQSETQSDEVAGRFLMERYGTTKPLRDVLARLETEDENADENSVKRDDPGAFLQTHPGTAERIRHLREIEQNWPQRRGK | failed
4 | MDNANCVGGCKFETRSFQYRRRIPYSLGADPLPPVHPLSLKNLVDIDTDLISSQLYELYDSIILNDSGLERRYAFVQKLEQILKKEFPYKNIKTSLFGSTQSLLASNASDIDLCIITDPPQCAPTTCEVSAAFARNGLKKVVCISTAKVPIVKVWDSELQLSCDCNINKTISTLNTRLMRSYVLCDPRVRPLIVMIKYWAKRRCLNDAAEGGTLTSYTISCMVINFLQKRDPPILPSLQMLPHLQDSSTMTDGLDVSFFDDPDLVHGFGDKNEESLGILFVEFFRFFGYLFDYEHFVLSIRHGTFLSKRAKGWQFQLNNFLCVEEPFHTSRNLANTADEITMKGIQLEFRRVFRLLAYNCNVDDACSQFTFPSLTDTSFMDDYVNELQLEIVPGFSHGRDSSDTSCTESPPEPSHFAWAFDPYNATASPYYNQNINSSIDYSSIYSNDVPAIPPNVPYTFVDPYTYACYINNNSYLPPSYMDFYTWYNSPYPKSSHHFDERHGGDRHEKNLSNSRRYSRNKFHKKKQSSGPFQYYPDAFSFTPTDNNSPPSNSSSSEVVSPVSLHSEPVLSTVQAFKS | failed
5 | GVDRWPEYYPETGRDIWIDSVMRQEYLWYRDMPSPAAPDYFQKPEAFLKKAVASMDNGFSKIDSLLDEPIPSYGFDYTLYKVLDNDTAYNALISYVVPGSPAEEAGLQRGHWIMMMNGDYITKKVESELLQGSTRQLQIGVYKEVVGEDGEVTGGVVPIGETTMPASRSLVDKPVHRFEIIPWNGKKVGYLMYNEFKAGPTTDSQAYNDDLRRAFRDFQTGGVNEFVLDLRYNTGGSLDCAQLLCTMLAPADKMNQLLALLRYSDKRVEANQDLTFNPELIQSGANLNLSTVYVLTTNATRGAAEMVINCLNPYMKVVLIGTKTAGEYVATKPFVHPTDRFILNLVVCNVYNAEEKSDYATGFKPTYEYNEDSYLSTYLPFGNTNETLLNAALKIMSGITDK | not failed
6 | MGFSKVPLIWLCHPKIIAIDSKHVEVRIPLRRRTKNHLNSMYFGALAVGADVAGGFLAMSKAQEKGEAISLAFKGVKAEFLKRPEADVHFVCNDGHVIDEMLDHTIATGERVNRDVKIIALCPSLHGQEPMAEFALTLSLEHHHHHH | failed
7 | MTFFTNYTNLALIAILLVSGGLLAWPALRRGRGGLSAAEATQLINRRNAVVIDLRAATDFAAGHLPSARQVAAGEIGAKIAQVAKNKSTPVLLVCQNGQQSQKAAREVQAAGYAEVHVLEGGVAAWQQAGMPVVKQGVAK | failed
8 | MEKYEELFARIKEKAKLIDEKIFELIPEKDPRVLYEAARHYPLAGGKRVRPFVVLTSTEAVGGDPLRAIYPAVAIELIHNYSLVHDDIMDMDETRRGKPTVHRIWGVNMAILAGDLLFSKAFEAVARAEIPPEKKARVLEVIVKASNELCEGQARDLEFEKKSTVTIEEYMEMISGKTGALFEASAKVGGIIGTDNEEYIKALSSWGRNVGIAFQIWDDVLDLIADEKKLGKPVGSDIRKGKKTLIVAHFFENADEKDKQRFLKIFGKYAGDVKGRGIIEEDIKSDVMEAIDLLKKYGSIDYAAEIAKDMIKKANEALRILPKSKARMDLELLAKFIVEREY | not failed
9 | MPNKVKKRHLLDYSIFIPYLILSIVGLIMVYSSTSALQVMKGFSPTSFVINQVAFWVVGLVAMFFIYKMKTSVFQNRSFIMFAIAVITVMVLAVRIPGIGKEINGARGWIEIGGFSMQPAEYLKIMVVWYLSYILARRQKTINGGMDQFKQAAGRPLMLVFVLIALVAIQPDFGNAAILTLITIVMVLASGINYMYTYLVGGLGILGSITAIQLLIMSKGKIFPARYQYIYNRFAVFKNPFLDERNLGHQLANSYYAISNGGWFGKGLGNSVQKKGFLPEAHTDFIFAITLEELGIIGGLAILGLLMFMIARIILVGVRSKKPFNSLMCIGIGTMLLIQVFINVGGITGIIPLTGITFPFLSQGGNSLLIISIAVAFVLNISADETRQKLENEYYLSLEQNQ | failed
10 | DIEALTLLEIADPIREDAAETLEYLRSEDVTLKIISGDNPVTVSHIAHQAGFADYQSYIDCSKVSDEELEALAEDTAIFGRVSPHQKKLLIQTLNANGHTTAMTGDGVNDILALREADCSIVMAEGDPATRQIANLVLMDSEFKDIPE | failed
11 | MRLLVAFAVIYFISISPVCAENTASTINIPTPAIESPLASKSLLLDISLIGQEKLVTVGQHGHILLSNDGKKWQQANVPVQVTLTNVFFLNEQLGWAVGHDATILHSQDGGLNWQVQQYLPLLEKPLFDIYFKNPQQGIAVGAYGQVFRTNDGGSTWQNEFHQEILLADDVEYLNELKAEDEAAYLDEITFILPHFNRLVQDGGSLFLLGETGLLAKSDDFGLTWQQFDNFYQGSFFSLARTKTGNVLVAGLRGHVFRSLNHGSQWDEVPTNTTALLNDIVFANDERIFILGNNGMLLISTDDGESFSKIPQQDGKTLIAGVWFKGQLIAVSDVGIKVVDLSQE | failed
12 | NFTLAITEAVSEKEIYNKLAENLPKILQADRGSVTLITENKDEFEVFSLQGPEGMLSIGKYFSVDNSLAGLAVQQEKTIISKLNADRIEIDAQQLYQQDLLSIMNSPLQFSDRIIGTVNIGSYKENAYDSTSLELLTLVSTLVSNYLERQHLLEQAQIGVKQYKTYSKQLESLNHVAEELCAATNE | failed
13 | MYTKQHTIKAPVKVSGVGLHTGAQVNLTFVPAPINHGILFKRVDLPDQPVVECDVDNVVDVSRGTSIEKNGARINTVEHALAALVGLQIDNILIELDGPEIPIMDGSSLPFIEAINAIGLEEQNALRNFFEVPHGIFFQDAEKNIELAALPLDDYRVTVMVDYNSPVLGSQHATLNNINQFEKEIASCRTFCFLHELEMLHKQNLIKGGDLNNAIVIVDRIVKDDELDSLAKLFGKDKVEVKKEGILNNIELRYKNEPARHKLLDVVGDLALVGRPLKAQIMAARPGHASNVAFAKKLKRVMMDSRQKAPHYDITQPSVLDVNQIYKLLPHRYPFKLVDKIVHLDENMIIGVKNVTINEPFFEGHFPGNPVMPGVLQIEAMAQTGGIFVMQSVPDPENYWTYFLSIESAKFRRMVVPGDTLVFKCELTAPIKRGIAKMQGQAYVGGNLVCEASLTASIVKKK | failed
14 | MKRAFAAVAATVCLFLLVQLGSLALVEPFMSAGFQAVEDPSDPTNSLLYIIAILVATGVMLAAMKFGVDRLLQGLVLFAAVFISFYVFTVVVPPVVAVAGLNLVAVALALALGVGLLVYPEWYVIDAAGIVMGAGAAGLFGISFGLLPALVLLVVLAVYDAISVYGTEHMLALASGAMDLRLPVIFVVPLTLSYSFLDADNPESLEDDTPESDAEAEPDEGDDVSTATGDAEPVDTMAEDADTDADSDADADDPAAAEAAPDEHADPFARDAFFIGLGDAVIPTILVASAAFFRPGGVELLSVPGIALTVPALGAMVGTIAGLLALMWFVMKGRAHAGLPLLNGGAIAGYLLGAAAVGIPVVEALGVAPYL | failed
15 | MDRRRFIKGSMAMAAVCGTSGIASLFSQAAFAADSDIADGQTQRFDFSILQSMAHDLAQTAWRGAPRPLPDTLATMTPQAYNSIQYDAEKSLWHNVENRQLDAQFFHMGMGFRRRVRMFSVDPATHLAREIHFRPELFKYNDAGVDTKQLEGQSDLGFAGFRVFKAPELARRDVVSFLGASYFRAVDDTYQYGLSARGLAIDTYTDSKEEFPDFTAFWFDTVKPGATTFTVYALLDSASITGAYKFTIHCEKSQVIMDVENHLYARKDIKQLGIAPMTSMFSCGTNERRMCDTIHPQIHDSDRLSMWRGNGEWICRPLNNPQKLQFNAYTDNNPKGFGLLQLDRDFSHYQDIMGWYNKRPSLWVEPRNKWGKGTIGLMEIPTTGETLDNIVCFWQPEKAVKAGDEFAFQYRLYWSAQPPVHCPLARVMATRTGMGGFPEGWAPGEHYPEKWARRFAVDFVGGDLKAAAPKGIEPVITLSSGEAKQIEILYIEPIDGYRIQFDWYPTSDSTDPVDMRMYLRCQGDAISETWLYQYFPPAPDKRQYVDDRVMS | failed
16 | MDDSYMMVPMRRKRSQCDLAQMVQAIEEYDGSTQCEIDIDECASHPCKNGATCIDQPGNYFCQCVPPFKVFNFDGISSTSVQEFYHCEFGPCKASDSCENGAVRGEKMDLEMFPLEFRCQCASFSGPRCEINVNECSSSPCLHGYCYDMVDGFSCLCNPGYVGIRCEQDIDDCILNACEHNSTCKDLHLSYQCVCLSDWEGNFCEQESNECKMNPCKNNSTCTDLYKSYRCECTSGWTGQNCSEEINECDSDPCMNGGLCHESTIPGQFVCLCPPLYTGQFCHQRYNLCDLLHNPCRNNSTCLALVDANQHCICREEFEGKNCEIDVKDCLFLSCQDYGDCEDMVNNFRPGFSGSLCEIEINECSSEPCKNNGTCVDLTNRFFCNCEPEYHGPFCELDVNKCKISPCLDEENCVYRTDGYNCLCAPGYTGINCEINLDECLSEPCLHDGVCIDGINHYTCDCKSGFFGTHCETNANDCLSNPCLHGRCTELINEYPCSCDADGTSTQCKIKINDCTSIPCMNEGFCQKSAHGFTCICPRGYTGAYCEKSIDNCAEPELNSVICLNGGICVDGPGHTFDCRKACLYNCDNAKTRQESKELNKQQD | failed
17 | MTQRTAFTLTVSPKIPARLSRLEELSNNLWYSWDRATRALFSRLDQQLWEAVGHSPKAFLRRVDESLLLQAAEDLTFLSHYNSVLSAYDSYHSEPSRYQAINGIEARDQVAYFCFEFGFHESLPVYSGGLGILAGDHCKAASDLCLPFVAVGLLYRQGYFFQTIDGQGNQQPVFCDSDFEDLPVKPALHDDGSEVRISVRFPGRVVTVKVWRAQIGHVGLYLLDTDLPDNSEYDRLITHQLYGGNKTMRIEQEIILGVGGVAALRAMGIKPTIWHSNEGHAAFMMLTRALELVRQGLDFASATEAVAVNTIFTTHTAVPAGHDHFPEDMMHRYFEDFYHELKISREEFMALGHTPGNHDFNMTALAIRMSRMHNGVSRIHRDVSANICHDMWPQIEPEENPIDYVTNGVHVPTFLAQEWTDLFDRRLGSQWRSKQHAPEFWSRIHDIPDHIFWSVRQSLKSQMFYGIRARLTEQNLRNHGSEAHLERLLRFVDPINPNILTLGFARRFATYKRATLLFQDLDWLRKLLLDAARPILLIFAGKAHPADLPGQALIRHIHQVADMPEFRGRILLVEGYDLRLARRLVSGVDVWLNNPIYPLEASGTSGMKAGINGTLNLSILDGWWGEGYDGKNGWGIKPVSENMEDSLRDAEESRAFYEILQDQVIPLYYDHSKFGYSADWVRMAKNSMVSLLPRYGTGRMVGEYVQKFYAPASRQGTGYSQDNFAIARSIAAWKARINAAWDGVSVRRLDTPGKQLEFGSTMHFKLAVKLNGLQPEDVVVELLLSRQYNKTRLSQFKHFRLECTGPLGSHEHQFELNHVPELCGRQQYYLRIYPYHPLLTHPLEMGKMVWLLEHHHHHH | failed

From a protein production outcome set (Wang et al. 2014)
